Test results as given in US20240261333A1, “NOVEL TARGETS FOR ENHANCING ANTI-TUMOR IMMUNITY” (THE BROAD INSTITUTE, INC., priority 2021, published 2024).

T1: B3GNT2 (Homo sapiens, UniProt Q9NY97)
T1 construct: The respective ORFs of candidate genes [CD274 (NM_014143), MCL1 (NM_021960), JUNB (NM_002229), and B3GNT2 (NM_006577)] were synthesized; expressed in transfected cells; host or cells: A375 melanoma cells (lentiviral ORF overexpression)
T1 sequence (Q9NY97 1-397): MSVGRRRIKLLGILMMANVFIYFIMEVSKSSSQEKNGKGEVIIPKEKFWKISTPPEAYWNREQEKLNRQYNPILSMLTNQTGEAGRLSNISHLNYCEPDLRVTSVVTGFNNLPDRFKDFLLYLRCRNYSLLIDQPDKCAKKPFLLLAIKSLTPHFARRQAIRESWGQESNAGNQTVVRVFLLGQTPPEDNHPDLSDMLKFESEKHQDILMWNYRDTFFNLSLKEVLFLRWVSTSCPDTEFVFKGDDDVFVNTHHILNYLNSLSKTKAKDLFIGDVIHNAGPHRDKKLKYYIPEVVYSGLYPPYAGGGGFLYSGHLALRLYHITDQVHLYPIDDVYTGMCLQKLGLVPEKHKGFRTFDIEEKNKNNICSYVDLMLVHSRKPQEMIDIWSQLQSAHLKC


Target: T1, B3GNT2
Test: Co-IP of FLAG-tagged B3GNT2 followed by mass spectrometry
Assay type: cell-based
Set-up: C-term IgG / C-term flag: unit not given here
Settings: Co-IP followed by mass spectrometry of B3GNT2; for C-term flag / C-term IgG: C-term tag; for C-term flag / N-term FLAG: FLAG pull-down; for C-term IgG / N-term IgG: IgG pull-down; for N-term FLAG / N-term IgG: N-term tag
In short: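 FLAG-tagged B3GNT2 immunoprecipitated from cell lysate (HEPES, 1% Triton X-100, 150 mM NaCl) with anti-FLAG versus […], overnight at 4° C, then captured on Protein A/G magnetic beads for 4 h. Two biological replicates per condition. Peptides fractionated and analyzed by nano-LC on an Orbitrap Elite in data-dependent mode.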

C-term flag	C-term IgG	N-term FLAG	N-term IgG	Molecule
43	36	47	39	JUP (protein) MEVMNLMEQPIKVTEWQQTYTYDSGIHSGANTCVPSVSSKGIMEEDEACGRQYTLKKTTTYTQGVPPSQGDLEYQMSTTARAKRVREAMCPGVSGEDSSLLLATQVEGQATNLQRLAEPSQLLKSAIVHLINYQDDAELATRALPELTKLLNDEDPVVVTKAAMIVNQLSKKEASRRALMGSPQLVAAVVRTMQNTSDLDTARCTTSILHNLSHHREGLLAIFKSGGIPALVRMLSSPVESVLFYAITTLHNLLLYQEGAKMAVRLADGLQKMVPLLNKNNPKFLAITTDCLQLLAYGNQESKLIILANGGPQALVQIMRNYSYEKLLWTTSRVLKVLSVCPSNKPAIVEAGGMQALGKHLTSNSPRLVQNCLWTLRNLSDVATKQEGLESVLKILVNQLSVDDVNVLTCATGTLSNLTCNNSKNKTLVTQNSGVEALIHAILRAGDKDDITEPAVCALRHLTSRHPEAEMAQNSVRLNYGIPAIVKLLNQPNQWPLVKATIGLIRNLALCPANHAPLQEAAVIPRLVQLLVKAHQDAQRHVAAGTQQPYTDGVRMEEIVEGCTGALHILARDPMNRMEIFRLNTIPLFVQLLYSSVENIQRVAAGVLCELAQDKEAADAIDAEGASAPLMELLHSRNEGTATYAAAVLFRISEDKNPDYRKRVSVELTNSLFKHDPAAWEAAQSMIPINEPYGDDMDATYRPMYSSDVPLDPLEMHMDMDGDYPIDTYSDGLRPPYPTADHMLA
4	0	0	0	PLOD1 (protein) KGDAKPEDNLLVLTVATKETEGFRRFKRSAQFFNYKIQALGLGEDWNVEKGTSAGGGQKVRLLKKALEKHADKEDLVILFADSYDVLFASGPRELLKKFRQARSQVVFSAEELIYPDRRLETKYPVVSDGKRFLGSGGFIGYAPNLSKLVAEWEGQDSDSDQLFYTKIFLDPEKREQINITLDHRCRIFQNLDGALDEVVLKFEMGHVRARNLAYDTLPVLIHGNGPTKLQLNYLGNYIPRFWTFETGCTVCDEGLRSLKGIGDEALPTVLVGVFIEQPTPFVSLFFQRLLRLHYPQKHMRLFIHNHEQHHKAQVEEFLAQHGSEYQSVKLVGPEVRMANADARNMGADLCRQDRSCTYYFSVDADVALTEPNSLRLLIQQNKNVIAPLMTRHGRLWSNFWGALSADGYYARSEDYVDIVQGRRVGVWNVPYISNIYLIKGSALRGELQSSDLFHHSKLDPDMAFCANIRQQDVFMFLTNRHTLGHLLSLDSYRTTHLHNDLWEVFSNPEDWKEKYIHQNYTKALAGKLVETPCPDVYWFPIFTEVACDELVEEMEHFGQWSLGNNKDNRIQGGYENVPTIDIHMNQIGFEREWHKFLLEYIAPMTEKLYPGYYTRAQFDLAFVVRYKPDEQPSLMPHHDASTFTINIALNRVGVDYEGGGCRFLRYNCSIRAPRKGWTLMHPGRLTHYHEGLPTTRGTRYIAVSFVDP
9	9	12	8	CPSF7 (protein) MSEGVDLIDIYADEEFNQDPEFNNTDQIDLYDDVLTATSQPSDDRSSSTEPPPPVRQEPSPKPNNKTPAILYTYSGLRNRRAAVYVGSFSWWTTDQQLIQVIRSIGVYDVVELKFAENRANGQSKGYAEVVVASENSVHKLLELLPGKVLNGEKVDVRPATRQNLSQFEAQARKRECVRVPRGGIPPRAHSRDSSDSADGRATPSENLVPSSARVDKPPSVLPYFNRPPSALPLMGLPPPPIPPPPPLSSSFGVPPPPPGIHYQHLMPPPPRLPPHLAVPPPGAIPPALHLNPAFFPPPNATVGPPPDTYMKASAPYNHHGSRDSGPPPSTVSEAEFEDIMKRNRAISSSAISKAVSGASAGDYSDAIETLLTAIAVIKQSRVANDERCRVLISSLKDCLHGIEAKSYSVGASGSSSRKRHRSRERSPSRSRESSRRHRDLLHNEDRHDDYFQERNREHERHRDRERDRHH
4	0	0	0	NAP1L1 (protein) ADIDNKEQSELDQDLDDVEEVEEEETGEETKLKARQLTVQMMQNPQILAALQERLDGLVETPTGYIESLPRVVKRRVNALKNLQVKCAQIEAKFYEEVHDLERKYAVLYQPLFDKRFEIINAIYEPTEEECEWKPDEEDEISEELKEKAKIEDEKKDEEKEDPKGIPEFWLTVFKNVDLLSDMVQEHDEPILKHLKDIKVKFSDAGQPMSFVLEFHFEPNEYFTNEVLTKTYRMRSEPDDSDPFSFDGPEIMGCTGCQIDWKKGKNVTLKTIKKKQKHKGRGTVRTVTKTVSNDSFFNFFAPPEVPESGDLDDDAEAILAADFEIGHFLRERIIPRSVLYFTGEAIEDDDDDYDEEGEEADEEGEEEGDEENDPDYDPKKDQNPAEC
4	0	0	0	TTC13 (protein) MAPAGCCCCCCFWGGAVAAAGAARRVLLLLLLGVLSAGLRPGALATEHYSPLSLLKQELQHRQQQEAPAGGGGCSPQSGDWGDQYSAECGESSFLNFHDSDCEPKGSSPCDSLLSLNTEKILSQAKSIAEQKRFPFATDNDSTNEELAIAYVLIGSGLYDEAIRHFSTMLQILSPLGRINEAVNDLTKAIQLQPSARLYRHRGTLYFISEDYATAHEDFQQSLELNKNQPIAMLYKGLTFFHRGLLKEAIESFKEALKQKVDFIDAYKSLGQAYRELGNFEAATESFQKALLLNQNHVQTLQLRGMMLYHHGSLQEALKNFKRCLQLEPYNEVCQYMKGLSHVAMGQFYEGIKAQTKVMLNDPLPGQKASPEYLKVKYLREYSRYLHAHLDTPLTEYNIDVDLPGSFKDHWAKNLPFLIEDYEEQPGLQPHIKDVLHQNFESYKPEVQELICVADRLGSLMQYETPGFLPNKRIHRAMGLAALEVMQAVQRTWTNSKVRMNGKTRLMQWRDMFDIAVKWRRIADPDQPVLWLDQMPARSLSRGFNNHINLIRGQVINMRYLEYFEKILHFIKDRILVYHGANNPKGLLEVREALEKVHKVEDLLPIMKFNTKTKDGFTVNTKVPSLKDQGKEYDGFTITITGDKVGNILFSVETQTTEERTQLYHAEIDALYKDLTAKGKVLILSSEFGEADAVCNLILSLVYYFYNLMPLSRGSSVIAYSVIVGALMASGKEVAGKIPKGKLVDFEAMTAPGSEAFSKVAKSWMNLKSISPSYKTLPSVSETFPTLRSMIEVLNTDSSPRCLKKL
4	0	0	0	SPARC (protein) APQQEALPDETEVVEETVAEVTEVSVGANPVQVEVGEFDDGAEETEEEVVAENPCQNHHCKHGKVCELDENNTPMCVCQDPTSCPAPIGEFEKVCSNDNKTFDSSCHFFATKCTLEGTKKGHKLHLDYIGPCKYIPPCLDSELTEFPLRMRDWLKNVLVTLYERDEDNNLLTEKQKLRVKKIHENEKRLEAGDHPVELLARDFEKNYNMYIFPVHWQFGQLDQHPIDGYLSHTELAPLRAPLIPMEHCTTRFFETCDLDNDKYIALDEWAGCFGIKQKDIDKDLVI
